Where two headings read alike, the source gives them in different places.
Assays:
EGFR [1] = target: T1, EGFR (Homo sapiens, UniProt P00533); assay: Inhibition of EGFR phosphorylation in NCI-H292 cells; assay type: cell-based; set-up: host or cells: NCI-H292; conditions: FIG. 5A
Method: Purified EGFR-binding FN3 domains were tested for their ability to inhibit EGF-stimulated phosphorylation of EGFR in A431 cells at a single concentration. EGFR phosphorylation was monitored using the EGFR phospho(Tyr1173) kit (Meso Scale Discovery). […] Controls were treated with starvation medium only. […] One set of control wells was left un-stimulated as negative controls. Medium was completely removed, and cells were lysed with 100 μL/well of Complete Lysis Buffer (Meso Scale Discovery) for 10 minutes at room temperature with shaking, as per the manufacturer's instructions. […] Signals were detected by addition of 150 μL/well of Read Buffer (Meso Scale Discovery) and reading on a SECTOR® Imager 6000 instrument (Meso Scale Discovery) using manufacturer-installed assay-specific default settings. Percent inhibition of the EGF-stimulated positive control signal was calculated for each EGFR-binding FN3 domain.
NCI-H292, NCI-H441, or NCI-H596 cells were plated in 96 well plates in RPMI medium containing 10% FBS. […] Cells were lysed with MSD Lysis Buffer and cell signaling was assessed using appropriate MSD Assay plates, according to manufacturer's instructions, as described above.

EGFR [2] = target: T1, EGFR; assay: Inhibition of EGFR phosphorylation in NCI-H441 cells; assay type: cell-based; set-up: host or cells: NCI-H292; conditions: FIG. 5C
Method: (§1) NCI-H292, NCI-H441, or NCI-H596 cells were plated in 96 well plates in RPMI medium containing 10% FBS. 24 hours later, medium was replaced with serum free RPMI. […] Cells were treated for 1 h with the monospecific or bispecific molecules and then stimulated with EGF, HGF, or a combination of EGF and HGF for 15 minutes at 37° C., 5% CO2. Cells were lysed with MSD Lysis Buffer and cell signaling was assessed using appropriate MSD Assay plates, according to manufacturer's instructions, as described above.

EGFR [3] = target: T1, EGFR; assay: Inhibition of EGFR phosphorylation in NCI-H596 cells; assay type: cell-based; set-up: host or cells: NCI-H292; conditions: FIG. 5B
Method: as §1

NCI-H292 cells = assay: NCI-H292 growth assay; assay type: cell-based, human; conditions: 120 hours, CellTiter-Glo
Method: (§2) Inhibition of EGFR-dependent cell growth was assessed by measuring viability of the EGFR over-expressing human tumor cell lines, NCI-H292 and NCI-H322 (American Type Culture Collection, cat. #CRL-1848 & #CRL-5806, respectively), following
(§3) exposure to EGFR-binding FN3 domains. […] Cells were treated by addition of 5 μL/well of phosphate-buffered saline (PBS) containing a concentration range of EGFR-binding FN3 domains. Controls were treated with 5 μL/well of PBS only or 25 mM ethylenediaminetetraacetic acid in PBS. […] Viable cells were detected by addition of 75 μL/well of CellTiter-Glo® reagent (Promega), followed by mixing on a plate shaker for 2 minutes, and incubation in the dark at room temperature for a further 10 minutes. Plates were read on a SpectraMax M5 plate reader (Molecular Devices) set to luminescence mode, with a read time of 0.5 seconds/well against a blank of medium only. Data were plotted as a percentage of PBS-treated cell growth against the logarithm of FN3 domain molar concentration.

[4] = target: EGF binding to EGFR on A431 cells (Homo sapiens, UniProt P00533); assay: A431 cell EGF competition assay; conditions: 30 ng/mL biotinylated EGF
Method: To better characterize the mechanism of EGFR binding, the ability of various identified FN3 domain clones to bind EGFR in an EGF-competitive manner was measured using A431 cells and run in parallel with the A431 binding assay screen. […] Biotinylated EGF (Invitrogen, cat. #E-3477) was added to each well for a final concentration of 30 ng/mL and incubated for 10 minutes at room temperature.
Bacterial lysates containing the FN3 domains were screened in the EGF competition assay described above.
Biotinylated EGF (Invitrogen, Cat #: E-3477) was added to each well to give a final concentration of 30 ng/mL and incubated for 10 minutes at room temperature.

EGFR on A431 cells = EGFR on A431 cells (Homo sapiens, UniProt P00533); assay: A431 cell binding assay; conditions: purified FN3 domains
NCI-H322 cells = assay: NCI-H322 growth assay; assay type: cell-based, human; conditions: 120 hours, CellTiter-Glo
Method: as §2, §3

EGFR [5] = target: T1, EGFR; assay: Phospho-EGFR assay: inhibition of EGF-stimulated EGFR phosphorylation (Tyr1173) in A431 cells; assay type: cell-based; conditions: 50 ng/mL EGF
[6] = target: T2, recombinant EGFR extracellular domain (EGFR-Fc) (Homo sapiens, UniProt P00533); assay: EGFR-Fc affinity by surface plasmon resonance (Proteon); assay type: binding
T2 construct: purchased R&D Systems
Method: Select EGFR-binding FN3 domains were screened to identify those with slow off-rates (koff) in binding to EGFR-Fc on a ProteOn XPR-36 instrument (Bio-Rad) to facilitate selection of high affinity binders. Goat anti-human Fc IgG (R&D systems), at a concentration of 5 μg/mL, was directly immobilized via amine coupling (at pH 5.0) on all 6 ligand channels in horizontal orientation on the chip with a flow rate of 30 μL/min in PBS containing 0.005% Tween-20. The immobilization densities averaged about 1500 Response Units (RU) with less than 5% variation among different channels. EGFR-Fc was captured on the anti-human Fc IgG surface to a density around 600 RU in vertical ligand orientation. All tested FN3 domains were normalized to a concentration of 1 μM and tested for their binding in horizontal orientation. […] The dissociation phase was monitored for 10 minutes at a flow rate of 100 μL/min. […]
Binding affinity of selected EGFR-binding FN3 domains to recombinant EGFR extracellular domain was further characterized by surface Plasmon resonance methods using a Proteon Instrument (BioRad). […] The dissociation phase for all concentrations of each EGFR-binding FN3 domain was monitored at a flow rate of 100 μL/min for 30 minutes (for those with koff ˜10^−2 s^−1 from off-rate screening), or 1 hour (for those with koff ˜10^−3 s^−1 or slower). […]

H292 cells = assay: Inhibition of proliferation of HGF-induced H292 cells; assay type: cell-based, human; conditions: bispecific molecules
Excerpt: Inhibition of tumor cell proliferation can be measured using standard methods and methods described herein.
The proliferation assay was completed using different combinations EGFR and c-Met binding FN3 domains either as a mixture or linked in a bispecific format. […] This confirmed that the avidity effect observed at the level of the receptors (FIG. 4 and FIG. 5) translates into an improvement in inhibiting cell signaling (Table 12) and cell proliferation (Table 13).
Inhibition of human tumor cell growth was assessed in standard attachment culture as described in Examples 3 or 6, or in low attachment conditions.

c-Met-Fc fusion protein = target: T3, c-Met-Fc fusion protein (Homo sapiens, UniProt P08581); assay: c-Met-Fc affinity by surface plasmon resonance (Proteon); assay type: binding; conditions: bispecific molecules; read-out: KD (c-Met)
T3 construct: recombinant EGFR and/or c-Met extracellular domain
T3 sequence (P08581 25-932 limits assumed): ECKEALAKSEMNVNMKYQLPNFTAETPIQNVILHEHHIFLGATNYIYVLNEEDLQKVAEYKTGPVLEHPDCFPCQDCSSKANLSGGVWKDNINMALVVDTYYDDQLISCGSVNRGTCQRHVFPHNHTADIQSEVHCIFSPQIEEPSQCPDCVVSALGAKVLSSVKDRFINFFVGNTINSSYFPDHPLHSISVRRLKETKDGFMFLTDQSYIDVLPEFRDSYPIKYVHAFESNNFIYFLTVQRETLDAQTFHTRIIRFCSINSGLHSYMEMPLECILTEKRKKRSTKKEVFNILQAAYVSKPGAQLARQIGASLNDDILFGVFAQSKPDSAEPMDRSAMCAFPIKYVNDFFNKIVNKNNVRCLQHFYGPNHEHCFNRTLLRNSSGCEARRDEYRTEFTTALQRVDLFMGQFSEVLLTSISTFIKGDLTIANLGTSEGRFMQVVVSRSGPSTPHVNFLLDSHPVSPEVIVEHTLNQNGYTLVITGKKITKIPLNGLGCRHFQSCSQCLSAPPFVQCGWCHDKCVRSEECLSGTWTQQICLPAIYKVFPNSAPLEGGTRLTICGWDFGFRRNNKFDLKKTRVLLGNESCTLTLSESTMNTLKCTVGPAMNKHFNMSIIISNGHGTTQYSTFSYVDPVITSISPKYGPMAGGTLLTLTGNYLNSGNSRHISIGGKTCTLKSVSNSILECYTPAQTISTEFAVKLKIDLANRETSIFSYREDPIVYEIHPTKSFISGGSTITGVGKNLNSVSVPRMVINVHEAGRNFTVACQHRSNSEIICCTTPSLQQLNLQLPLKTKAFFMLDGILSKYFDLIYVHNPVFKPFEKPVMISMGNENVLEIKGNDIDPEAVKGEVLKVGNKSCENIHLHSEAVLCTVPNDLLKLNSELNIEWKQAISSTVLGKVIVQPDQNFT

B1: ECB5: bispecific SEQ ID NO: 54: P53A1R5-17v2, (GGGGS)4, P114AR7P94-A3 (protein)
chain: MLPAPKNLVVSEVTEDSARLSWADPHGFYDSFLIQYQESEKVGEAIVLTVPGSERSYDLTGLKPGTEYTVSIYGVHNVYKDTNMRGLPLSAIFTTGGGGSGGGGSGGGGSGGGGSMLPAPKNLVVSRVTEDSARLSWTAPDAAFDSFWIRYFEFLGSGEAIVLTVPGSERSYDLTGLKPGTEYVVNIMGVKGGKISPPLSAIFTT
modifications: bispecific EGFR/cMet binding molecule
For B1, the “inhibition of phosphorylation of EGFR, bispecific versus monospecific” value (EGFR [1]) was “comparable”, the “decrease of IC50 for inhibition of EGFR phosphorylation compared to monospecific EGFR-binding FN3 domain” value (EGFR [2]) was 30 fold and the “inhibition of phosphorylation of EGFR, bispecific versus monospecific” value (EGFR [3]) was “comparable”.

B2: P54AR4-47: EGFR-binding FN3 domain, SEQ ID NO: 20 (protein)
chain: LPAPKNLVVSEVTEDSLRLSWGYNGDHFDSFLIQYQESEKVGEAINLTVPGSERSYDLTGLKPGTEYTVSIYGVHNVYKDTNMRGLPLSAEFTT
modifications: EGFR binding FN3 domain
For B2, the IC50 (NCI-H292 cells) was 44 nM, the IC50 [4] was 7.1 nM and the EC50 (EGFR on A431 cells) was 8.6 nM. The IC50 (NCI-H322 cells) was 39 nM, the IC50 (EGFR [5]) was 295 nM and the Kd ([6]; SPR, 1:1 Langmuir fit, read-out: EGFR-Fc Affinity) was 2.51 nM.

B3: ECB168: bispecific SEQ ID NO: 190: P54AR4-83v22, (AP)5, P114AR7P95-C5v2 (protein)
chain: MLPAPKNLVVSEVTEDSARLSWDDPWAFYESFLIQYQESEKVGEAIVLTVPGSERSYDLTGLKPGTEYTVSIYGVHNVYKDTNIRGLPLSAIFTTAPAPAPAPAPLPAPKNLVVSRVTEDSARLSWTAPDAAFDSFWIRYFEFLGSGEAIVLTVPGSERSYDLTGLKPGTEYVVNILSVKGGSISPPLSAIFTT
modifications: Bispecific EGFR/c-Met molecule
B3 was tested, and the IC50 (H292 cells) was 3.1 nM, the Kd (c-Met-Fc fusion protein) was 0.32 nM and the Kd ([6]; bispecific molecules, read-out: KD (EGFR)) was 0.4 nM.

Reference: patent US12304939B2, “EGFR and C-met fibronectin type III domain binding molecules” (Janssen Biotech, Inc., priority 2012, dated 2025)
